Source: the supplement of paper PMC9732359
± gives the uncertainty stated by the source.

Assay: protein stability index of a GFP-peptide fusion (yeast GPS) (PSI 1-4); higher = more stable; sorted into four equal gates, so the index is relative within each strain
Conditions: pdr5∆
How it was run: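 Tiled yeast protein peptides of 17 residues were each joined downstream of GFP, on plasmids that also express Cherry. The pooled library was maintained in yeast, and mid-log cultures in leucine-free medium were sorted into four equal gates on the GFP/Cherry ratio. Plasmids from every gate were amplified by PCR and sequenced on Illumina, with barcodes linking reads to strains. The protein stability index of a peptide is its gate-number-weighted read frequency summed over the gates.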

Point of comparison: NTTTYKSRPDRPKPVSP [SNF5], protein stability index 3.12 ± 0.05. Against it:
- NNSGNDNNNTTNNDSNN [MED2] — higher, 3.27 ± 0.033
- NNTVDPGFDEFQLIDMK [CSI1] — the same, 3.12 ± 0.062
- NNVAYGKKRFRVVTVDG [SMC4] — lower, 2.1 ± 0.13
- NPEEVEQVAEEAAAAEE [RPS0B] — within error, 3.03 ± 0.11
- NPYNTRSNKIKVVKTPG [RPL34A] — lower, 1.93 ± 0.045
- NQFLKIKKKRKELFEKT [SMC1] — within error, 3 ± 0.11
- NQIPVTEHSKVTRFDEK [SRB6] — lower, 3.02 ± 0.049
- NQLLAALVAYTPTDVIG [RRP6] — lower, 1.39 ± 0.048
- NQNICTSVTRRSPVFAL [GRR1] — lower, 1.6 ± 0.037
- NQQQQNQQPQQQQQQQQ [SWI1] — lower, 2.93 ± 0.037
- NQSNLNGGNNTQQPGTN [SNF2] — within error, 3.1 ± 0.075
- NRAMEYDALLSINVHSN [RET1] — lower, 2.41 ± 0.064
- NRLLPNLPEEERKQIHE [GRR1] — lower, 1.41 ± 0.079
- NRSNDALIKFMEYHISN [FAS2] — lower, 2.55 ± 0.078
- NSAIIQNLRKELLIYKK [YIL149C/MLP2] — lower, 2.6 ± 0.11
- NSASSAPTPAAPGASVP [SWI1] — within error, 3.16 ± 0.056
- NSDLEFNTFWDEKGNEI [ARP9] — within error, 3.25 ± 0.12
- NSISDFLGEQVNEPTKN [RPN1] — within error, 3.15 ± 0.13
- NSISSQPASYHSVQETN [SSN2] — lower, 2.54 ± 0.058
- NSIYCPTQTVAELDLMS [RPN6] — lower, 1.72 ± 0.071
- NSKPEKSSDSNDSNPSF [YLR335W/NUP2] — lower, 2.62 ± 0.064
- NSQERVQDLGSAISVTN [SIR2] — within error, 3.11 ± 0.11
- NSRNAIRKLVKNGTIVK [RPL19A] — lower, 2.9 ± 0.063
- NSSKYYINEKESSYTEV [SMC4] — lower, 2.38 ± 0.1
- NSSNYFGELQFAFLNAM [AAR2] — lower, 2.94 ± 0.071
- NSSRFSDPMLQRTATLC [YCS4] — within error, 2.98 ± 0.093
- NSSTSSTSNTPSPPNVI [YDL088C/ASM4] — lower, 2.88 ± 0.045
- NSTGHSSNTNNNTNNNN [SWI1] — higher, 3.26 ± 0.066
- NTAAALVSLLDENDSKK [YAR002W/NUP60] — within error, 2.95 ± 0.12
- NTAPGLGNTVSTQPSFA [YGR119C/NUP57] — lower, 2.96 ± 0.079
- NTDLKDIIQGNPLMYSG [PCI8] — within error, 3.13 ± 0.085
- NTIRQNVTSSGDHNKLR [YML103C/NUP188] — within error, 3.04 ± 0.16
- NTSAKNKNGENKKIGKR [SIR4] — within error, 3.19 ± 0.14
- NTSESLLVDIQKYNQIQ [SMC2] — lower, 1.84 ± 0.066
- NTSFSFTKPPANETDKR [YOR098C/NUP1] — within error, 3.11 ± 0.049
- NTTQDNGGDKELEMIGG [YCS4] — within error, 3.06 ± 0.17
- NVAKNMKTPSLTVYLEP [RPO21] — lower, 2.86 ± 0.085
- NVEPTENAYKSENAPSA [YAR002W/NUP60] — within error, 3.02 ± 0.12
- NVFHGLCAGANNPKIQT [IRR1] — lower, 1.97 ± 0.077
- NVGKPDQSIASGNTNGA [YOR098C/NUP1] — lower, 2.09 ± 0.28
- NVKEITEKLKISPESVF [SMC3] — lower, 2.18 ± 0.069
- NVLDYFAESPFFDKTSN [MED6] — within error, 2.99 ± 0.085
- NVNETMSRSLANGIINV [SMC3] — lower, 2.76 ± 0.061
- NVPSTKFNAAPEENATE [SNF12] — higher, 3.35 ± 0.07
- NVRDDMKPSDNISTNTN [SSN2] — lower, 2.94 ± 0.049
- NVRMDTMANILYYPQKP [RPB2] — within error, 3.23 ± 0.24
- NVSIVANYIKERTKNAQ [SMC4] — within error, 3.14 ± 0.065
- NVSSNIVKNAEQHNLVK [RPS20] — within error, 3.17 ± 0.057
- NVTETYSVYLIHEIRLN [SIR3] — lower, 1.98 ± 0.099
- NVYRVTVHKTFEGNVAT [PRP8] — within error, 3.16 ± 0.23
- NVYVGMTDMQIQWYKSL [ISW2] — lower, 2.41 ± 0.059
- NVYVLPKNLLKKFIEIS [PRP8] — lower, 2.16 ± 0.045

Same assay, conditions: san1∆

In the case of NFTSPTAVVNNAAPANV [SWI1], the protein stability index is reported as 2.69 ± 0.088.
